Article PMC4520625

Columns and labels:
[1] = target: full-length human galectin-3 (human) (UniProt P17931); assay: ITC
[2] = target: galectin-3 carbohydrate recognition domain (CRD) obtained by proteolytic truncation (human); assay: ITC

Sequence of full-length human galectin-3 (human) (P17931 whole entry, the tested form may be a part): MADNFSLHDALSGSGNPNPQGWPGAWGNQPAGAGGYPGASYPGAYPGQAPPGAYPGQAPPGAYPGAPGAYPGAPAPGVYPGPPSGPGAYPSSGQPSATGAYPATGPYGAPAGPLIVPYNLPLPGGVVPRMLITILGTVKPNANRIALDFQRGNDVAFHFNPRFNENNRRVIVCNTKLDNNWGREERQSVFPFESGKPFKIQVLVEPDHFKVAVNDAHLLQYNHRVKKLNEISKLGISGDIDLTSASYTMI

## MUC1-Ser5 glycopeptide carrying the TF antigen
[1]
  dH: -1.33 kcal/mol
[2]
  dH: -4.11 kcal/mol
